Test results from article PMC10958042.

B1: ATGL (PNPLA2, patatin-like phospholipase domain-containing protein 2), human, full length / CGI-58 (ABHD5, 1-acylglycerol-3-phosphate O-acyltransferase ABHD5), human (parent)
chain 1: MFPREKTWNISFAGCGFLGVYYVGVASCLREHAPFLVANATHIYGASAGALTATALVTGVCLGEAGAKFIEVSKEARKRFLGPLHPSFNLVKIIRSFLLKVLPADSHEHASGRLGISLTRVSDGENVIISHFNSKDELIQANVCSGFIPVYCGLIPPSLQGVRYVDGGISDNLPLYELKNTITVSPFSGESDICPQDSSTNIHELRVTNTSIQFNLRNLYRLSKALFPPEPLVLREMCKQGYRDGLRFLQRNGLLNRPNPLLALPPARPHGPEDKDQAVESAQAEDYSQLPGEDHILEHLPARLNEALLEACVEPTDLLTTLSNMLPVRLATAMMVPYTLPLESALSFTIRLLEWLPDVPEDIRWMKEQTGSICQYLVMRAKRKLGRHLPSRLPEQVELRRVQSLPSVPLSCAAYREALPGWMRNNLSLGDALAKWEECQRQLLLGLFCTNVAFPPEALRMRAPADPAPAPADPASPQHQLAGPAPLLSTPAPEARPVIGALGL
chain 2: MAAEEEEVDSADTGERSGWLTGWLPTWCPTSISHLKEAEEKMLKCVPCTYKKEPVRISNGNKIWTLKFSHNISNKTPLVLLHGFGGGLGLWALNFGDLCTNRPVYAFDLLGFGRSSRPRFDSDAEEVENQFVESIEEWRCALGLDKMILLGHNLGGFLAAAYSLKYPSRVNHLILVEPWGFPERPDLADQDRPIPVWIRALGAALTPFNPLAGLRIAGPFGLSLVQRLRPDFKRKYSSMFEDDTVTEYIYHCNVQTPSGETAFKNMTIPYGWAKRPMLQRIGKMHPDIPVSVIFGARSCIDGNSGTSIQSLRPHSYVKTIAILGAGHYVYADQPEEFNQKVKEICDTVD

Variants of: B1
Assay: LUMIER: Protein A-ATGL variant and firefly luciferase-partner co-expressed in HEK293T, lysates immunoprecipitated on IgG-coated plates, co-precipitated partner measured as luciferase luminescence
Conditions: with CGI-58 (ABHD5, 1-acylglycerol-3-phosphate O-acyltransferase ABHD5), transient co-transfection, IgG-coated LUMITRAC plates, 2 h at 4 °C, three PBS washes, Bright-Glo luciferase reagent, triplicates per assay, two …, scale: log2 fold change of co-immunoprecipitated luminescence relative to wild-type ATGL within each experiment

In the case of chain 1 MFPREKTWNISFAGCGFLGVYYVGVASCLREHAPFLVANATHIYGASAGALTATALVTLVCLGEAGAKFIEVSKEARKRFLGPLHPSFNLVKIIRSFLLKVLPADSHEHASGRLGISLTRVSDGENVIISHFNSKDELIQANVCSGFIPVYCGLIPPSLQGVRYVDGGISDNLPLYELKNTITVSPFSGESDICPQDSSTNIHELRVTNTSIQFNLRNLYRLSKALFPPEPLVLREMCKQGYRDGLRFLQRNGLLNRPNPLLALPPARPHGPEDKDQAVESAQAEDYSQLPGEDHILEHLPARLNEALLEACVEPTDLLTTLSNMLPVRLATAMMVPYTLPLESALSFTIRLLEWLPDVPEDIRWMKEQTGSICQYLVMRAKRKLGRHLPSRLPEQVELRRVQSLPSVPLSCAAYREALPGWMRNNLSLGDALAKWEECQRQLLLGLFCTNVAFPPEALRMRAPADPAPAPADPASPQHQLAGPAPLLSTPAPEARPVIGALGL [chain 1 G59L], the screen value (parent: 0.32, not graded) is reported as -0.404 and the screen value (parent: 0.45, not graded) is reported as -0.665.

Work on chain 1 MFPREKTWNISFAGCKFLGVYYVGVASCLREHAPFLVANATHIYGASAGALTATALVTGVCLGEAGAKFIEVSKEARKRFLGPLHPSFNLVKIIRSFLLKVLPADSHEHASGRLGISLTRVSDGENVIISHFNSKDELIQANVCSGFIPVYCGLIPPSLQGVRYVDGGISDNLPLYELKNTITVSPFSGESDICPQDSSTNIHELRVTNTSIQFNLRNLYRLSKALFPPEPLVLREMCKQGYRDGLRFLQRNGLLNRPNPLLALPPARPHGPEDKDQAVESAQAEDYSQLPGEDHILEHLPARLNEALLEACVEPTDLLTTLSNMLPVRLATAMMVPYTLPLESALSFTIRLLEWLPDVPEDIRWMKEQTGSICQYLVMRAKRKLGRHLPSRLPEQVELRRVQSLPSVPLSCAAYREALPGWMRNNLSLGDALAKWEECQRQLLLGLFCTNVAFPPEALRMRAPADPAPAPADPASPQHQLAGPAPLLSTPAPEARPVIGALGL [chain 1 G16K] yielded a screen value (parent: 0.32, not graded) of -0.139 and a screen value (parent: 0.45, not graded) of 0.515.

In the case of chain 1 MFPREKTWNISFAGCGFLGVYYVGVASCLREHAPFLVANATHIYGASAGALTATALVTGVCLGEALAKFIEVSKEARKRFLGPLHPSFNLVKIIRSFLLKVLPADSHEHASGRLGISLTRVSDGENVIISHFNSKDELIQANVCSGFIPVYCGLIPPSLQGVRYVDGGISDNLPLYELKNTITVSPFSGESDICPQDSSTNIHELRVTNTSIQFNLRNLYRLSKALFPPEPLVLREMCKQGYRDGLRFLQRNGLLNRPNPLLALPPARPHGPEDKDQAVESAQAEDYSQLPGEDHILEHLPARLNEALLEACVEPTDLLTTLSNMLPVRLATAMMVPYTLPLESALSFTIRLLEWLPDVPEDIRWMKEQTGSICQYLVMRAKRKLGRHLPSRLPEQVELRRVQSLPSVPLSCAAYREALPGWMRNNLSLGDALAKWEECQRQLLLGLFCTNVAFPPEALRMRAPADPAPAPADPASPQHQLAGPAPLLSTPAPEARPVIGALGL [chain 1 G66L], the screen value (parent: 0.32, not graded) is reported as 0.0179 and the screen value (parent: 0.45, not graded) is reported as -0.54.

chain 1 MFPREKTWNISFAGCGFLGVYYVGVASCLREHAPFLVANATHIYGASAGALTATALVTGVCLGEAAAKFIEVSKEARKRFLGPLHPSFNLVKIIRSFLLKVLPADSHEHASGRLGISLTRVSDGENVIISHFNSKDELIQANVCSGFIPVYCGLIPPSLQGVRYVDGGISDNLPLYELKNTITVSPFSGESDICPQDSSTNIHELRVTNTSIQFNLRNLYRLSKALFPPEPLVLREMCKQGYRDGLRFLQRNGLLNRPNPLLALPPARPHGPEDKDQAVESAQAEDYSQLPGEDHILEHLPARLNEALLEACVEPTDLLTTLSNMLPVRLATAMMVPYTLPLESALSFTIRLLEWLPDVPEDIRWMKEQTGSICQYLVMRAKRKLGRHLPSRLPEQVELRRVQSLPSVPLSCAAYREALPGWMRNNLSLGDALAKWEECQRQLLLGLFCTNVAFPPEALRMRAPADPAPAPADPASPQHQLAGPAPLLSTPAPEARPVIGALGL [chain 1 G66A] showed a screen value (parent: 0.32, not graded) of -0.000473 and a screen value (parent: 0.45, not graded) of 0.0899.

Work on chain 1 MFPREKTWNISFAGCGFLGVYYVGVASCLREHAPFLVANATHIYGASAGALTATALVTGVCLGEAGAKFIEVSKEARKRFLGPLHPSFNLVKIIRSFLLKVLPADSHEHASGRLGISLTRVSDGENVIISHFNSKDELIQANVCSGFIPVYCKLIPPSLQGVRYVDGGISDNLPLYELKNTITVSPFSGESDICPQDSSTNIHELRVTNTSIQFNLRNLYRLSKALFPPEPLVLREMCKQGYRDGLRFLQRNGLLNRPNPLLALPPARPHGPEDKDQAVESAQAEDYSQLPGEDHILEHLPARLNEALLEACVEPTDLLTTLSNMLPVRLATAMMVPYTLPLESALSFTIRLLEWLPDVPEDIRWMKEQTGSICQYLVMRAKRKLGRHLPSRLPEQVELRRVQSLPSVPLSCAAYREALPGWMRNNLSLGDALAKWEECQRQLLLGLFCTNVAFPPEALRMRAPADPAPAPADPASPQHQLAGPAPLLSTPAPEARPVIGALGL [chain 1 G153K] yielded a screen value (parent: 0.32, not graded) of -0.536 and a screen value (parent: 0.45, not graded) of -0.602.

Variant chain 1 MFPREKTWNISFAGCGFLGVYYVGVASCLREHAPFLVANATHIYGASAGALTATALVTGVCLGEAGAKFIEVSKEARKRFLGPLHPSFNLVKIIRSFLLKVLPADSHEHASGRLGISLTRVSDGENVIISHFNSKDELIQANVCSGFIPVYCALIPPSLQGVRYVDGGISDNLPLYELKNTITVSPFSGESDICPQDSSTNIHELRVTNTSIQFNLRNLYRLSKALFPPEPLVLREMCKQGYRDGLRFLQRNGLLNRPNPLLALPPARPHGPEDKDQAVESAQAEDYSQLPGEDHILEHLPARLNEALLEACVEPTDLLTTLSNMLPVRLATAMMVPYTLPLESALSFTIRLLEWLPDVPEDIRWMKEQTGSICQYLVMRAKRKLGRHLPSRLPEQVELRRVQSLPSVPLSCAAYREALPGWMRNNLSLGDALAKWEECQRQLLLGLFCTNVAFPPEALRMRAPADPAPAPADPASPQHQLAGPAPLLSTPAPEARPVIGALGL [chain 1 G153A] has a screen value (parent: 0.32, not graded) of -0.595 and a screen value (parent: 0.45, not graded) of -0.455.
